Earlier results in paper PMC8777194.

Target: Leader protein L L (Encephalomyocarditis virus) (UniProt P03304)

In the case of 2A protein 2A (from UniProt P03304), the Kd is listed as 1500 nM.
